Measured values: paper PMC9544323, “Abscisic acid regulates stomatal production by imprinting a SnRK2 kinase–mediated phosphocode on the master regulator [sequence]” (Science Advances, 2022)

Biological target: T1, GST-SPCH (glutathione S-transferase-tagged …) (Arabidopsis thaliana, UniProt Q700C7 1-364)
T1 construct: cDNA cloned into pDEST15; cDNA recombined into pDEST15; also called GST-tagged SPCH; source: E. coli ArcticExpress (DE3), purified (Pierce Glutathione Agarose)
T1 sequence (looked up): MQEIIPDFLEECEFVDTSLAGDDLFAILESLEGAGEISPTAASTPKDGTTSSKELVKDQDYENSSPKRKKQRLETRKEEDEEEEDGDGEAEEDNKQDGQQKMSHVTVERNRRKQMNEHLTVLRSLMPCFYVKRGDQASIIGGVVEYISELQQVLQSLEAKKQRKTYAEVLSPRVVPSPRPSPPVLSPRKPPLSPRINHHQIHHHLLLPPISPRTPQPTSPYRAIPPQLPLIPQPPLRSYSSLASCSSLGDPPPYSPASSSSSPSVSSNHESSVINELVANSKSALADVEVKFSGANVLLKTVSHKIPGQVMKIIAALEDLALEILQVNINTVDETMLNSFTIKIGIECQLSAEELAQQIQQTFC
Assay: pull-down; GST-SPCH or GST (1 ug) on Pierce Glutathione Agarose; MBP-SnRK2.2/2.3/2.6 or MBP alone (1 ug) added; 4 C, 2 hours; washed five times with 20 mM tris-HCl pH 7.5, 300 mM NaCl, 0.1% NP-40, 1 mM EDTA; blot with anti-MBP
Settings: both partners purified

B1: MBP-SnRK2.6 (maltose-binding protein-tagged SnRK2.6) (enzyme, Arabidopsis thaliana, UniProt Q940H6 1-362, looked up)
chain: MDRPAVSGPMDLPIMHDSDRYELVKDIGSGNFGVARLMRDKQSNELVAVKYIERGEKIDENVKREIINHRSLRHPNIVRFKEVILTPTHLAIVMEYASGGELFERICNAGRFSEDEARFFFQQLISGVSYCHAMQVCHRDLKLENTLLDGSPAPRLKICDFGYSKSSVLHSQPKSTVGTPAYIAPEVLLKKEYDGKVADVWSCGVTLYVMLVGAYPFEDPEEPKNFRKTIHRILNVQYAIPDYVHISPECRHLISRIFVADPAKRISIPEIRNHEWFLKNLPADLMNDNTMTTQFDESDQPGQSIEEIMQIIAEATVPPAGTQNLNHYLTGSLDIDDDMEEDLESDLDDLDIDSSGEIVYAM
notes: SnRK2.6/SRK2E/OST1, subclass III SNF1-related protein kinase 2, Arabidopsis thaliana; cDNA cloned into pETG-40A; also called SRK2E; OPEN STOMATA 1; source: E. coli ArcticExpress (DE3), purified (MBP amylose resin)
- binding result: binds

B2: MBP-SnRK2.2 (maltose-binding protein-tagged SnRK2.2) (enzyme, Arabidopsis thaliana, UniProt Q39192 1-362, looked up)
chain: MDPATNSPIMPIDLPIMHDSDRYDFVKDIGSGNFGVARLMTDRVTKELVAVKYIERGEKIDENVQREIINHRSLRHPNIVRFKEVILTPSHLAIVMEYAAGGELYERICNAGRFSEDEARFFFQQLISGVSYCHAMQICHRDLKLENTLLDGSPAPRLKICDFGYSKSSVLHSQPKSTVGTPAYIAPEILLRQEYDGKLADVWSCGVTLYVMLVGAYPFEDPQEPRDYRKTIQRILSVTYSIPEDLHLSPECRHLISRIFVADPATRITIPEITSDKWFLKNLPGDLMDENRMGSQFQEPEQPMQSLDTIMQIISEATIPTVRNRCLDDFMADNLDLDDDMDDFDSESEIDVDSSGEIVYAL
notes: SnRK2.2/SRK2D, subclass III SNF1-related protein kinase 2, Arabidopsis thaliana; cDNA cloned into pETG-40A; also called SRK2D; source: E. coli ArcticExpress (DE3), purified (MBP amylose resin)
- binding result: binds

B3: MBP-SnRK2.3 (maltose-binding protein-tagged SnRK2.3) (enzyme, Arabidopsis thaliana, UniProt Q39193 1-361, looked up)
chain: MDRAPVTTGPLDMPIMHDSDRYDFVKDIGSGNFGVARLMRDKLTKELVAVKYIERGDKIDENVQREIINHRSLRHPNIVRFKEVILTPTHLAIIMEYASGGELYERICNAGRFSEDEARFFFQQLLSGVSYCHSMQICHRDLKLENTLLDGSPAPRLKICDFGYSKSSVLHSQPKSTVGTPAYIAPEVLLRQEYDGKIADVWSCGVTLYVMLVGAYPFEDPEEPRDYRKTIQRILSVKYSIPDDIRISPECCHLISRIFVADPATRISIPEIKTHSWFLKNLPADLMNESNTGSQFQEPEQPMQSLDTIMQIISEATIPAVRNRCLDDFMTDNLDLDDDMDDFDSESEIDIDSSGEIVYAL
notes: SnRK2.3/SRK2I, subclass III SNF1-related protein kinase 2, Arabidopsis thaliana; cDNA cloned into pETG-40A; also called SRK2I; source: E. coli ArcticExpress (DE3), purified (MBP amylose resin)
- binding result: binds
